The target of one assay is h15H6.v1 HC-A71R variant. The assay can be described thus: phage competition ELISA: phage-displayed Fab preincubated with soluble murine HtrA1, unbound phage captured on coated huHtrA1-PD-His, OD450. In general terms: In an ELISA, binding on a coated surface is turned into a signal by an enzyme label.
For the next assay, the target named is h15H6.v1 LC-S49Y variant. The assay is described as above.
The target of assay [1] is T1, murine HtrA4 protease domain (murine, UniProt A2RT60 160-371, limits assumed).
T1 construct: domain: PD (protease domain); also called muHtrA4-PD; murine HtrA4-PD
T1 sequence (looked up): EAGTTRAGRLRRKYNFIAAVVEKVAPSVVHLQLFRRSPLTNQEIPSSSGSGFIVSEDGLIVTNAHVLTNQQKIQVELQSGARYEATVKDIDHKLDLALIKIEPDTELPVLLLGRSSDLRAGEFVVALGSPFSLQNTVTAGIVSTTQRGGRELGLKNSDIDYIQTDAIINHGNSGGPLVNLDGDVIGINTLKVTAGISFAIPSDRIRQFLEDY
Description: ELISA, hybridoma clone.

Assay [2] deals with T2, murine HtrA3 protease domain (murine, UniProt Q9D236 135-350, limits assumed).
T2 construct: domain: PD (protease domain); also called muHtrA3-PD; murine HtrA3-PD
T2 sequence (looked up): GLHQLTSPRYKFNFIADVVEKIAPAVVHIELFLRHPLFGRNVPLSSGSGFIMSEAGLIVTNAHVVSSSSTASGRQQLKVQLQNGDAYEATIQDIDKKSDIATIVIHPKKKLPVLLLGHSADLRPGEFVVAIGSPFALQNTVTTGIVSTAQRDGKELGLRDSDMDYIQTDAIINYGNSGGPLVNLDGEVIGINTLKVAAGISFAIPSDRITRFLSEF
The assay can be described thus: ELISA, hybridoma clone.

Assay [3] deals with T3, His-tagged recombinant murine HtrA1 protease domain (murine, UniProt Q9R118 156-367).
T3 construct: His-tagged protease domain; also called muHtrA1-PD-His; muHtrA1-PD
The assay can be described thus: ELISA, antigen coated on plate, hybridoma clone. The protocol: (§1) ELISA was performed according to a standard protocol. Briefly, 96-well microliter ELISA plates (Greiner, Germany) were coated with 100 μl/well muHtrA1-PD-His or huHtrA1-PD-His (SEQ ID NO: 154) at 2 μg/ml in 0.05 M carbonate buffer (pH 9.6) at 4° C. overnight. After washing three times with wash buffer (0.05% TWEEN®20 in PBS, Sigma), plates were blocked with 100 μl ELISA assay diluents with BSA. 100 μl of cultured supernatants or diluted purified monoclonal antibodies (mAbs) were added and incubated for 1 h at room temperature. The plates were washed three times and incubated with HRP-conjugated goat anti-mouse IgG Fc for 1 h. After washing three times, bound enzyme was detected by addition of 100 μl/well of the TMB substrate (BioFX Laboratories) for 5 min. The reactions were stopped by adding 100 μl/well of stop reagent (BioFX Laboratories), followed by detection of color at absorbance 650 nm (A_{650 nm}).

For assay [4], the target named is T4, His-tagged human HtrA1 protease domain (human, UniProt Q92743 161-367).
T4 construct: His-tagged protease domain; also called huHtrA1-PD-His; huHtrA1-PD
T4 sequence (Q92743 other isoform, or with tags, fused parts or gaps limits assumed): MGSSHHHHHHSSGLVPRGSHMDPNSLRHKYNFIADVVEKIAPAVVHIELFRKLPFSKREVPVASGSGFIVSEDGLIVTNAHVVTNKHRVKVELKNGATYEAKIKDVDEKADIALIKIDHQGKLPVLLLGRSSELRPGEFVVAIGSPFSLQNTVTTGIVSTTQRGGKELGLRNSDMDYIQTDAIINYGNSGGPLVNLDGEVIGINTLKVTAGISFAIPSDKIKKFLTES
The assay can be described thus: ELISA, antigen coated on plate, hybridoma clone. The protocol:
as §1

Assay [5] addresses T4, His-tagged human HtrA1 protease domain. The assay can be described thus: SPR (BIACORE), Fab. In general terms: In SPR one partner is held on a chip, and binding of the other changes the refractive index at the surface.
Assay [6] has as its target T5, LA-pep1, peptide corresponding to residues 190-201 of the human HtrA1 sequence (human).
T5 construct: Synthetic peptide; numbering of the human HtrA1 precursor protein; also called LA-pepl; HtrA1 Loop A (LA) peptide
T5 peptide: RKLPFSKREVPV
Description: SPR, peptide and Fab.

The target in the next assay is T6, LA-pep6.
T6 construct: The changed residue is printed as an image; A is put in by the column 'AA change' (R8A); also called R8A
T6 peptide: RKLPFSKAEVPV
Description: SPR, peptide and Fab.

Another assay has as its target T7, LA-pep3.
T7 construct: The changed residue is printed as an image; A is put in by the column 'AA change' (L3A); also called L3A
T7 peptide: RKAPFSKREVPV
The assay can be described thus: SPR, peptide and Fab.

For another assay, the target named is T8, LA-pep5.
T8 construct: The changed residue is printed as an image; A is put in by the column 'AA change' (F5A); also called F5A
T8 peptide: RKLPASKREVPV
The assay can be described thus: SPR, peptide and Fab.

The next assay deals with T9, LA-pep2.
T9 construct: The changed residue is printed as an image; A is put in by the column 'AA change' (R1A); also called R1A
T9 peptide: AKLPFSKREVPV
The assay can be described thus: SPR, peptide and Fab.

For a further assay, the target named is T10, LA-pep4.
T10 construct: The changed residue is printed as an image; A is put in by the column 'AA change' (P4A); also called P4A
T10 peptide: RKLAFSKREVPV
Description: SPR, peptide and Fab.

Assay [7] concerns the target T4, His-tagged human HtrA1 protease domain. Description: cell-based or functional assay.
Assay [8] addresses endogenous HtrA1 from media of HtrA1-secreting human C32 melanoma cells (human, UniProt Q92743 23-480). The assay can be described thus: cell-based or functional assay.
The target of assay [9] is T4, His-tagged human HtrA1 protease domain. The assay can be described thus: BIACORE SPR analysis, Fab format. The protocol:
To determine the binding affinity of selected Fab variants for HtrA1, SPR measurement with a BIACORE™ T200 instrument was performed. Briefly, a series S sensor chip CM5 was activated with 1-EDC and NHS reagents according to the supplier's instructions, and anti-His antibody was coupled to achieve 200-300 response units (RU), then following by blocking un-reacted groups with 1 M ethanolamine. For kinetics measurements, approximately 5 nM of huHtrA1-PD-His was first injected at 10 μl/min flow rate to capture approximately 100 RU at 2 different flow cells (FC), except for FC1 (which served as a reference). Next, 5-fold serial dilutions of Fab in HBS-P buffer (0.01M HEPES pH 7.4, 0.15M NaCl, 0.005% surfactant P20) from low (0.8 nM) to high (50 nM) were injected (flow rate: 30 μl/min). The binding responses on HtrA1 were corrected by subtracting of RU from a blank flow cell. The sensorgram was recorded and subject to reference and buffer subtraction before evaluating by BIACORE® T200 Evaluation Software (version 2.0). Association rates (kₒₙ) and dissociation rates (koff) were calculated using a simple one-to-one Langmuir binding model. The equilibrium dissociation constant (KD) was calculated as the ratio of koff/kₒₙ.

The target is the same in assay [10]. Description: BIACORE T200 SPR; Fab analyte over huHtrA1-PD-His captured by anti-His antibody.
Assay [11] has the same target. The assay can be described thus: cell-based or functional assay. The source holds these as a separate data set.

By Kd is commonly meant the concentration at which binding is half-saturated. Low values mean tighter binding, high ones weaker binding. As a reminder, the koff is a measure of how fast the partners let go of each other. Higher therefore signals fast dissociation. As a reminder, the kon is a measure of how fast the partners come together. Lower therefore signals slower complex formation.

Chain of endogenous HtrA1 from media of HtrA1-secreting human C32 melanoma cells (Q92743 23-480 limits assumed): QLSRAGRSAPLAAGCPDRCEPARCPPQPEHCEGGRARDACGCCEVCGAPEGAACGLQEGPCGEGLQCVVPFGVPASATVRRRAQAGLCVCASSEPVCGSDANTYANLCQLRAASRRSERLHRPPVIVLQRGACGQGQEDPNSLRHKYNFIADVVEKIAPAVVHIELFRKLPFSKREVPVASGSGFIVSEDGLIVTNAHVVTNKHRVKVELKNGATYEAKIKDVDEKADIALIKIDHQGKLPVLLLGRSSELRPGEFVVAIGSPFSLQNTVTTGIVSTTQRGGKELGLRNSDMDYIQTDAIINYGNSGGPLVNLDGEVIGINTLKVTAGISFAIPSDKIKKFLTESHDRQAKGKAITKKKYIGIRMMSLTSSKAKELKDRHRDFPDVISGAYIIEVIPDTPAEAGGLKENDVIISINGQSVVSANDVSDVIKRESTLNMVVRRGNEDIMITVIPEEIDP

Regarding “His-tagged recombinant murine HtrA1 protease domain (from UniProt Q9R118 156-367) (enzyme)”, the IC50 (read off the curve) with h15H6.v1 HC-A71R variant stood at 0.1 nM; with h15H6.v1 LC-S49Y variant it was 0.6 nM.

B1: anti-HtrA1 hybridoma antibody clone 3A5 (antibody, V domains shown)
VH: DVHLVESGGGLVRPGGSRKLSCEASGFTFSSFGMHWVRQAPEKGLEWVAFITSDSSTIYYADTVKGRFTISRDNPKNTLFLQMTSLRSEDTAMYYCTRSGDDYLDYWGQGTTLTVSS
VL: DIVLTQSPASLAVSLGQRATISCRASQSVSTSSSSYMHWYQQKPGQPPKVFIKYASNLESGVPARFSGSGSGTDFTLSIHPVEEEDTATYYCQHSWEIPFTFGGGTKLEIK
Regarding B1, the binding result in [1] is “no binding”; in [2] it was “no binding”; in assay [3], “binds”; in assay [4], “binds”.

B2: anti-HtrA1 hybridoma antibody clone 20E2 (antibody, V domains shown)
VH: EVKLVESGGGLVQPGGSLKLSCAASGFTFSSYIMSWVRQTPEKRLEWVAYISNGGGTTYYPDTIKGRFTISRDNAKNTLYLQMNTLKSEDTAIYFCARQNFRSDGSSMDYWGQGTSVTVSS
VL: NIVLTQSPASLAVSLGQRATISCRASESVDTSGRSFMHWYQQKPGQPPRLLIYLASKLESGVPARFSGSGSRTDFTLTIDPVEADDAATYYCQQNNEDPYTFGGGTNLEIK
Take B2: the binding result in [1] was “no binding”; in [2], “no binding”; in assay [3] it was “binds”; in assay [4], “binds”.

B3: h15H6.v4 Fab (Fab, V domains shown)
VH: EVQLVQSGAEVKKPGASVKVSCKASGYKFTDSEMHWVRQAPGQGLEWIGGVDPETEGAAYNQKFKGRATITRDTSTSTAYLELSSLRSEDTAVYYCTRGYDYDYALDYWGQGTLVTVSS
VL: DIQMTQSPSSLSASVGDRVTITCRASSSVEFIHWYQQKPGKAPKPLISATSNLASGVPSRFSGSGSGTDFTLTISSLQPEDFATYYCQQWSSAPWTFGQGTKVEIK
notes: Tested as Fab; also called APEG.LC3.HC3; Fab15H6.v4
Take B3: in assay [5], the “fold improvement in affinity against YW505.94a.28 Fab” value was around 30 fold. For the same molecule, the affinity in assay [6], expressed as Kd, was 0.4 nM. In addition, in the assay with LA-pep6, the “affinity loss (KD mutant/KD wild-type)” value is above 2500 fold and the binding result is “no binding (tested: no binding detected up to 1 µM)”. Further, in the assay with LA-pep3, the “affinity loss (KD mutant/KD wild-type)” value was above 2500 fold and the binding result is reported as “no binding (tested: no binding detected up to 1 µM)”. Besides, in the assay with LA-pep5, binding was put at a Kd of 4.53 nM and the “affinity loss (KD mutant/KD wild-type)” value worked out at 11 fold. In the assay with LA-pep2, the Kd was determined as 321 nM and the “affinity loss (KD mutant/KD wild-type)” value is 810 fold. In addition, in the assay with LA-pep4, the “affinity loss (KD mutant/KD wild-type)” value is above 2500 fold and the binding result was “no binding (tested: no binding detected up to 1 µM)”. In [7], the “IC50, FRET-based H2-Opt blocking assay” value was around 0.386 nM and the “IC50, mass spectrometry-based activity assay (cleavage of intact α-casein)” value was around 45 nM. Besides, in assay [8], the “IC50, endogenous HtrA1 activity assay (H2-Opt)” value was around 1.12 nM. Further, in [9], the affinity, expressed as Kd, was 0.106 nM; the koff is 3.29e-05 s⁻¹; the kon stood at 309000 M⁻¹ s⁻¹. Also, in assay [10], the Kd worked out at 0.106 nM, the koff amounted to 3.29e-05 s⁻¹ and the kon was 309000 M⁻¹ s⁻¹. In [11], the “IC50 FRET (H2-Opt substrate cleavage)” value is 0.3 nM, the “IC90 FRET (H2-Opt substrate cleavage)” value is 1.19 nM and the “Max inhibition (FRET H2-Opt assay)” value came to 100.
